The text below walks through data of the emibetuzumab library of Makowski et al. (2022).

The labels stand for the following.
B1: VH:VL chains; a variant is named by its letters at X, in order (parent)
chain 1: QVQLVQSGAEVKKPGASVKVSCKASGYTFTDYXMHWVRQAPGQGLEWMGXVNPNXXXTTYNQKFEGRVTMTTDTSTSTAYMELRSLRSDDTAVYYCARXNXLDXWGQGTTVTVSS
chain 2: DIQMTQSPSSLSASVGDRVTITCSVSSSVSSIYLHWYQQKPGKAPKLLIYSTSNLASGVPSRFSGSGSGTDFTLTISSLQPEDFATYYCQVYSGYPLTFGGGTKVEIK

In the data set the parent is B1. The experiment in a line: yeast display scFab, FACS + sequencing. In a few lines: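 The non-specific binding call was based on sorted and sequenced yeast displaying a heavy-chain CDR mutant scFab library. Labelling used anti-Myc with biotinylated ovalbumin (260 μg/mL in PBSB, 3 h, room temperature) or soluble membrane proteins (130 μg/mL, 20 min on ice), and FACS collected the top 25% and bottom 10% of binders in two replicates. Positive meant present in ≥3 of 4 pooled positive samples and in no negatives, and negative meant the converse.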
For SAGKDDLA, the non-specific binding call is listed as “no binding”. The entry for FAGTSVGS is “binds”; for DAGTGAGD it is “no binding”. The entry for DAKENAGD is “no binding”. Then DAKEGDAV, with “no binding”; and DAKEGDAD, with “no binding”; and YARADDVA, with “no binding”. Consider YARADDVF, for which the non-specific binding call is “no binding”. For the variant VAGRGVGD, the non-specific binding call is given as “binds”. Regarding VAKENAVA, the non-specific binding call was “no binding”. The entry for FAKTDAGF chain 1 G108D is “binds”; for YAKRDAGD it is “no binding”; for VAREDDLS it is “no binding”. With VAGTGDLY, the non-specific binding call is “no binding”. Then VAGTGDLA, with “no binding”; and VAGTGSLD, with “no binding”; and YAGRGDWF, with “no binding”. The entry for DAGKSDWY is “no binding”. The entry for AARADDGV is “no binding”; for AARADDGS it is “no binding”; for VARADSGV it is “no binding”. As to YAGRGVGD, the non-specific binding call was “binds”.

Regarding YARADDSA, the non-specific binding call was “no binding”. For the variant YARADSSV, the non-specific binding call is “no binding”. The entry for YARADSSD is “no binding”. Then DAGGGSSD, with “no binding”; and DAGGGSSS, with “no binding”. YARADDAS: the non-specific binding call was “no binding”. Then VAGTSDGA, with “no binding”. The entry for YAGTGFWV is “binds”; for YAKADSGA it is “binds”.

Consider FAGGGFAV, for which the non-specific binding call was “binds”. As to VAKEGAWV, the non-specific binding call is on record as “binds”. The entry for VAGTGAVV is “no binding”; for VAGTGASD it is “no binding”; for YAGGGDWA it is “no binding”. The entry for DAGTGSWD is “no binding”; for DAGGGDVA it is “no binding”; for DAGGGDVV it is “no binding”. Then FARETFGV, with “binds”.

With VAGKGVLD, the non-specific binding call is listed as “binds”. As to AAGRAYGA, the non-specific binding call was “binds”. The entry for DAGTDAGD is “no binding”; for AARADSGY it is “no binding”.

Regarding AARADSGD, the non-specific binding call is “no binding”.

As to DAKEGSLD, the non-specific binding call is “no binding”.

Take YAGKGAWV: the non-specific binding call is recorded as “binds”.

For the variant VAGTDAGD, the non-specific binding call was “no binding”.

With VAGTDAGA, the non-specific binding call is on record as “no binding”. The entry for VAGRSFGS is “binds”. The entry for SAGRSDLV chain 1 R67H is “no binding”.

With FAKAGFVA, the non-specific binding call is given as “binds”. The entry for YARADAAA is “no binding”; for DAGRGDGY it is “no binding”; for DAGRGDGF it is “no binding”. For the variant VAGTGSAD, the non-specific binding call is on record as “no binding”.

With FAGRAAWA, the non-specific binding call was “binds”.

For the variant DAKEGDGV, the non-specific binding call is reported as “no binding”. As to YAGKSAGD, the non-specific binding call is “no binding”.

FAGGSFAS: the non-specific binding call is given as “binds”.

As to YAKGDDAS, the non-specific binding call is on record as “no binding”. The entry for FAGRGSSD is “binds”; for DARENAGY it is “no binding”. Then YAGKDDWV, with “no binding”.

Turning to YAKRGSWA, the non-specific binding call is given as “binds”. In the case of FAGRDVGV, the non-specific binding call was “binds”. The entry for SAKRDSAS is “no binding”; for YARADDGD it is “no binding”.

In the case of YARADDGS, the non-specific binding call is “no binding”. Regarding YARAGYAV, the non-specific binding call is recorded as “binds”. The entry for DAKENAVY is “no binding”; for DAGTGDGV it is “no binding”; for FAKEGFWD it is “binds”. The entry for VAGTGDGY is “no binding”. The entry for VAGTGDGV is “no binding”. VAGTGDGA: the non-specific binding call was “no binding”. Then YAGRGDVF, with “no binding”. The entry for YAGRGDVS is “no binding”; for YAGRGDVD it is “no binding”. On to YAGRGDVY, for which the non-specific binding call is on record as “no binding”. Turning to YAGRGSAS, the non-specific binding call is “no binding”. As to YAGTGDLV, the non-specific binding call is on record as “no binding”.

Consider VAKADDWF, for which the non-specific binding call is reported as “no binding”. The entry for AARADSSA is “no binding”; for DAKRDSAS it is “no binding”. Then AARADSAD, with “no binding”. The entry for SAREGDWV is “no binding”; for YAGTGFVD it is “binds”; for FAGGGDLV it is “no binding”.

With YAKGDYSV, the non-specific binding call is reported as “no binding”. Then FAGRGSAD, with “binds”. The entry for FAGRGYSD is “binds”; for VAGRSDLV chain 1 R67H it is “no binding”. The entry for SAREGDLA is “no binding”; for DAKENDVA it is “no binding”. Regarding DAKENDVF, the non-specific binding call was “no binding”.

For AARADFGV, the non-specific binding call is listed as “no binding”. The entry for VAKKNASF is “no binding”; for YARETDGA it is “no binding”; for DAKEGDLV it is “no binding”. As for FARENFLA chain 1 V51A, the non-specific binding call is on record as “binds”. Then FAGRSDWV chain 1 R67H, with “no binding”.

Turning to DARADSLV, the non-specific binding call was “no binding”. The entry for DAGGGYGV is “no binding”; for VARETDVA it is “no binding”. Then DAGRSDLV chain 1 R67H, with “no binding”; and YAKEGDGV, with “no binding”. Consider VAKADALD, for which the non-specific binding call was “no binding”. For SAREGYSV, the non-specific binding call was “binds”. Then VAGTGDWV, with “no binding”. The entry for VAGTGDWA is “no binding”; for VAGTGDWD it is “no binding”. The entry for VAGTGDWY is “no binding”.

In the case of VAGTGDWF, the non-specific binding call is given as “no binding”.

Turning to SARADSGV, the non-specific binding call is “no binding”. Then YAGKGFGA, with “binds”; and VAGTGDVY, with “no binding”; and VAGTGDVF, with “no binding”. Then VAGTGDVA, with “no binding”; and VAKRDSAS, with “no binding”; and AAKEGALV, with “no binding”.

On to AARADDSA, for which the non-specific binding call is “no binding”. Take AARADDSV: the non-specific binding call is reported as “no binding”. The entry for VAREGDLA is “no binding”. Then YAGRTAGV, with “binds”; and AARADDVY, with “no binding”. As to AARADDVD, the non-specific binding call is “no binding”. The entry for AARADDVA is “no binding”; for FAGTGSWD it is “no binding”. Then SAGTGSWD, with “no binding”; and FAGRGALD, with “binds”. The entry for DAGGGYSV is “no binding”; for SAREGSSA it is “no binding”. Regarding YARETAGV, the non-specific binding call was “binds”. The entry for FAKEGDGD is “no binding”. With YAGRGDAS, the non-specific binding call is “no binding”. Regarding YAGRGDAD, the non-specific binding call is “no binding”. Regarding YAGRADVV, the non-specific binding call is “no binding”. With YAGRGFGA, the non-specific binding call is “binds”. As for YAGRGFGF, the non-specific binding call was “binds”.

For the variant YAREAALS, the non-specific binding call is on record as “binds”. Take AAGGNAWS chain 1 G66S: the non-specific binding call was “no binding”. Take SAGRGYGD: the non-specific binding call is on record as “binds”.

Consider YAGRGVVD, for which the non-specific binding call is on record as “binds”. Then DAGKGSVD, with “no binding”; and FAGGGDWV, with “no binding”. The entry for YAGGTSSD is “no binding”; for FARAGDWV it is “binds”. For VAGKGAGD, the non-specific binding call is listed as “no binding”. The entry for DAKEGDVV is “no binding”; for SAGRGVGS it is “binds”. Then VAGTGDAA, with “no binding”; and SAGRGDGS, with “no binding”; and YAGRGDGA, with “no binding”.

As to DAGTGSGA, the non-specific binding call was “no binding”. As for SAGRGDWD, the non-specific binding call was “no binding”. Consider YAREGSGA, for which the non-specific binding call is given as “binds”. Then YAGRSFGS, with “binds”; and AAKRGSWV, with “no binding”.

For AAGRSDLV chain 1 R67H, the non-specific binding call is given as “no binding”. Then YAREDDGA, with “no binding”; and AARADDAA, with “no binding”; and AARADDAV, with “no binding”. For YAKADYSS, the non-specific binding call is listed as “binds”. The entry for YAGRGDSA is “no binding”; for AARADAVY it is “no binding”; for AARADAVA it is “no binding”. The entry for AARADAVV is “no binding”; for AARADSLS it is “no binding”. Then DAKEGAAA, with “no binding”; and DARADSGV, with “no binding”.

For SAGRGSAA, the non-specific binding call is given as “binds”. As for SAREGDAV, the non-specific binding call is “no binding”. The entry for AARETVGA is “binds”; for VAGRGSAA it is “binds”. With YAGKNAVV, the non-specific binding call is listed as “no binding”. Then AARADAGA, with “no binding”. Turning to YAGKTAWS, the non-specific binding call is listed as “binds”.

Take VARAADAD: the non-specific binding call was “no binding”. Then FAGGGDGD, with “no binding”; and VAGTDDWV, with “no binding”.

For YAGTGAVA, the non-specific binding call is given as “no binding”.

As to VAGTGFWV, the non-specific binding call is reported as “binds”. Then DAGTAFSS, with “binds”; and DAKKNASF, with “no binding”; and YARADSLD, with “no binding”. The entry for DAKEGAGD is “no binding”. Then FAGGGDVY, with “no binding”.

As to DAGGGDWV, the non-specific binding call is reported as “no binding”. On to DAGGGDWD, for which the non-specific binding call is “no binding”. The entry for DAGGGDGA is “no binding”; for FARAAALD it is “binds”.

On to YARGADGS, for which the non-specific binding call is “no binding”. Then FAKRGAWS, with “binds”. The entry for YAGRGASA is “no binding”; for YAGRGDLV it is “no binding”.

In the case of YAGRGDLA, the non-specific binding call is “no binding”. Then YAGRGDLD, with “no binding”. Then YAGKTSAD, with “binds”. Then AARADDWV, with “no binding”; and AARADDWD, with “no binding”; and FAGRDAVV, with “binds”. Consider YAKRDALA, for which the non-specific binding call was “no binding”. Then VAGTGSSV, with “no binding”; and VAGTGSSD, with “no binding”; and VAGTGSSA, with “no binding”. The entry for SAGRGFGF is “binds”. The entry for YAGTGVVD is “binds”; for DAKEGSSA it is “no binding”; for FAGRGVGD it is “binds”. YARETDVV: the non-specific binding call is “no binding”. Take DAGKGALF: the non-specific binding call is recorded as “no binding”.

As for DARETFLD, the non-specific binding call was “no binding”. For DAGKGAVV, the non-specific binding call is “no binding”. The entry for DAGKGAVY is “no binding”. The entry for VAREDDWA is “no binding”; for DAGKGAGD it is “no binding”. The entry for SAREGALD is “no binding”; for DAKTDDGV it is “no binding”; for YAGRAAWD it is “binds”. For the variant DAGRGAVS, the non-specific binding call is given as “no binding”. The entry for YARADSGD is “no binding”. The entry for YARAGSVS is “binds”; for AARADSWV it is “no binding”; for AAGRGFLD it is “no binding”.
